Reference: article PMC8668987 (The Journal of Biological Chemistry, 2021)

Assays:
[1] = molecular target: endogenous SRC-2 of mouse E14 ES cells (mouse (endogenous in E14 ES cells), UniProt Q61026 1-1462); experiment: co-IP
[2] = molecular target: endogenous SRC-3 of mouse E14 ES cells (mouse (endogenous in E14 ES cells), UniProt O09000 1-1398); experiment: co-IP
Sequence of endogenous SRC-3 of mouse E14 ES cells (O09000 whole entry): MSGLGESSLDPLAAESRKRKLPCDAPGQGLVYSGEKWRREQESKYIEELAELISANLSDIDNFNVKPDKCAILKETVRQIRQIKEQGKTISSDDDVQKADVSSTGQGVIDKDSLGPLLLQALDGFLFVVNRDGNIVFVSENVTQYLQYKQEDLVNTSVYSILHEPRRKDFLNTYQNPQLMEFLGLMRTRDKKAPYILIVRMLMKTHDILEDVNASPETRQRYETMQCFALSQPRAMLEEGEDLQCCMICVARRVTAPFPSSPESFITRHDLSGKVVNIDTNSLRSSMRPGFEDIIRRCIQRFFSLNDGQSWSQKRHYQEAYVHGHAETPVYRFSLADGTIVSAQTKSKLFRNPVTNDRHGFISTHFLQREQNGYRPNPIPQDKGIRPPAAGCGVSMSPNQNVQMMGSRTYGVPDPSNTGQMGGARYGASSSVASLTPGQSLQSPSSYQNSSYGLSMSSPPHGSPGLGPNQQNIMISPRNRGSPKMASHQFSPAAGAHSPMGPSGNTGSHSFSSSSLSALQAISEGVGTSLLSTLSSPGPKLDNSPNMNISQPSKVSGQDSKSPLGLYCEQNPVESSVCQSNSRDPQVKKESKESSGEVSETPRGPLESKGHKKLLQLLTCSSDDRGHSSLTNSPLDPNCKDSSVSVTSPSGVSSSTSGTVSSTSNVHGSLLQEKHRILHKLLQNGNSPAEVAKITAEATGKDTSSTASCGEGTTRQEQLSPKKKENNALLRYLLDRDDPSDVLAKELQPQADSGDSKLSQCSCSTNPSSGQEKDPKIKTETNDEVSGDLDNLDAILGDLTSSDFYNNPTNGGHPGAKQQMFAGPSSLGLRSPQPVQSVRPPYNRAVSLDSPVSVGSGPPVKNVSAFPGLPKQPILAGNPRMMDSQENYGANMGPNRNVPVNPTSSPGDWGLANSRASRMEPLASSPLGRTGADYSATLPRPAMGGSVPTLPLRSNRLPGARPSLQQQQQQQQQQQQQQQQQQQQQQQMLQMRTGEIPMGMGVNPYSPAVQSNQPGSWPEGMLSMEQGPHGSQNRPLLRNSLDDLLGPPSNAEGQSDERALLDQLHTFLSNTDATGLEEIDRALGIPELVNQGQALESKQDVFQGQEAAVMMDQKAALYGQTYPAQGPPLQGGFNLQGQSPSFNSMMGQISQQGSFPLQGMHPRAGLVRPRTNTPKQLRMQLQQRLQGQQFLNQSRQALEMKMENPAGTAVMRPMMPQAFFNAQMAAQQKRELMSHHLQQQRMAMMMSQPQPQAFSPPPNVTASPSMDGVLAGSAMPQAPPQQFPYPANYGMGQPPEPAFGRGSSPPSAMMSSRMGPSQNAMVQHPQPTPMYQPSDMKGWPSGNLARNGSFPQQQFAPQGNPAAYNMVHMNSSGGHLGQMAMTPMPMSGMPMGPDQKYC

Sequence of endogenous SRC-2 of mouse E14 ES cells (Q61026 whole entry): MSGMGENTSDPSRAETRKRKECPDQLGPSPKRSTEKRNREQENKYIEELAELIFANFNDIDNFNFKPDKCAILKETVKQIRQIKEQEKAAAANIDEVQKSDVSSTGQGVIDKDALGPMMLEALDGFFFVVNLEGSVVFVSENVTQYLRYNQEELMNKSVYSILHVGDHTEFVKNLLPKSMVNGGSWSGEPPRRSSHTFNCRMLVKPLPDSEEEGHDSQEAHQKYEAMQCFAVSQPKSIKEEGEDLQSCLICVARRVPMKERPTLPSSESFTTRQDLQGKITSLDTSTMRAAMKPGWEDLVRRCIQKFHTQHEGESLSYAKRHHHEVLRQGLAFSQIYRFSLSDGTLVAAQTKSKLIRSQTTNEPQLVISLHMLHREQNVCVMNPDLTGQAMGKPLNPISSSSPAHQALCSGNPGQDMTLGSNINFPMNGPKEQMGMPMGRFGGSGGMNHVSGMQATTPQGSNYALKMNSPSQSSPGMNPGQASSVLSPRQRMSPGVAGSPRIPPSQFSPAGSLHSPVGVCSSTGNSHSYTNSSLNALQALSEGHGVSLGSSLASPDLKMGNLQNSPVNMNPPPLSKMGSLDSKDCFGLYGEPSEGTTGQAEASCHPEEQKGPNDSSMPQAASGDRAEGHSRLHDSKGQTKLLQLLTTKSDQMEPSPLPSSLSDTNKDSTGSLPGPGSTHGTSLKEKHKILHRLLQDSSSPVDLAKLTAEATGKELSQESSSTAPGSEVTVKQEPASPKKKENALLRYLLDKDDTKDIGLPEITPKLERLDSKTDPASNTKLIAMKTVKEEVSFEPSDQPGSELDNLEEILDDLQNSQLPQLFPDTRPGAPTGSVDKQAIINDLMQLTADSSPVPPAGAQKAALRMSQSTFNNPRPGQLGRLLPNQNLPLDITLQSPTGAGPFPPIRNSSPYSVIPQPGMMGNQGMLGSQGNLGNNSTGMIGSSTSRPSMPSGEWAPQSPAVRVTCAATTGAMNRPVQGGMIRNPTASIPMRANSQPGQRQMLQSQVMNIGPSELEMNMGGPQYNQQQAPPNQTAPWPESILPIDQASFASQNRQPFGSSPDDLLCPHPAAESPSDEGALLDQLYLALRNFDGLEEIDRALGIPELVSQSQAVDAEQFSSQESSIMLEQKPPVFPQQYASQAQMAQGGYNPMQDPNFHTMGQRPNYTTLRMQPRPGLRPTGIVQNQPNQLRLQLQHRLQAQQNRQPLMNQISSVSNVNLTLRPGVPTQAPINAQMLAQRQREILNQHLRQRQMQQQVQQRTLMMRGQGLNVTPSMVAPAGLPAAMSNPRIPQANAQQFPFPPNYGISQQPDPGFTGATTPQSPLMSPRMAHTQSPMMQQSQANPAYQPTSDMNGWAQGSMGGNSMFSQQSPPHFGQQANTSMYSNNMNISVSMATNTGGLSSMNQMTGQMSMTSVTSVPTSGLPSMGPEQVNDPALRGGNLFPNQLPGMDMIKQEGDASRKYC

- fold change of co-precipitated Sox2, TSA plus NAM against untreated cells [1]: 4.08 fold
- fold change of co-precipitated Sox2, TSA plus NAM against untreated cells [2]: 7.53 fold
B1: endogenous Sox2 of mouse E14 ES cells (natural protein)
chain: not shown
